Kd data for 46 sequences are collected here from the Immune Epitope Database (IEDB).

Among the targets are HLA-A*01:01; HLA-A*26:01; HLA-A*29:02; HLA-A*30:02; HLA-A*03:01; HLA-A*31:01; HLA-A*33:01; HLA-A*68:01; HLA-A*11:01; HLA-A*23:01.
Holding throughout (experiment): IEDB peptide-MHC binding, purified MHC/competitive/radioactivity; filed as Kd, often an IC50 or EC50 that approximates it; ≥ and ≤ were set here for values at or beyond the usual limits of such assays
Holding throughout (details): source organism: Plasmodium falciparum 3D7

Regarding NHEQKLSEY, the dissociation constant (Kd) with HLA-A*01:01, with HLA-A*26:01, with HLA-A*29:02 and with HLA-A*30:02 was at least 10000 nM each time.
Turning to ELFDKDTFFK, the Kd with HLA-A*03:01 turned out to be 144 nM; in the assay with HLA-A*31:01 it was 3680 nM; with HLA-A*33:01, 13 nM; in the assay with HLA-A*68:01, 3.6 nM.
Regarding NIFLRFIPDK, the Kd was at least 10000 nM with HLA-A*03:01; 2120 nM with HLA-A*11:01; at least 10000 nM with HLA-A*31:01; 1090 nM with HLA-A*33:01; 1530 nM with HLA-A*68:01.
Take FQAAESNERY: the Kd with HLA-A*01:01 worked out at 8960 nM; in the assay with HLA-A*26:01, 3510 nM; with HLA-A*29:02, 1780 nM; in the assay with HLA-A*30:02, 372 nM.
As for IALLIIPPK, the Kd with HLA-A*03:01 was 1240 nM; in the assay with HLA-A*11:01, 108 nM; with HLA-A*31:01, 2930 nM; with HLA-A*33:01, 1400 nM; with HLA-A*68:01 it was 1960 nM.
On to YQNFQNADK, for which the Kd in the assay with HLA-A*03:01 was 2710 nM; in the assay with HLA-A*11:01, 177 nM; with HLA-A*31:01 it was at least 10000 nM; with HLA-A*33:01 it was at least 10000 nM; with HLA-A*68:01, at least 10000 nM.
As to PVLTSLFNK, the Kd with HLA-A*03:01 is 1950 nM; with HLA-A*11:01 it was 25 nM; with HLA-A*31:01, 5110 nM; with HLA-A*33:01, at least 10000 nM; in the assay with HLA-A*68:01, at least 10000 nM.
For the sequence KILIKIPVTK, the Kd in the assay with HLA-A*11:01 is 60 nM; with HLA-A*31:01 it was 1660 nM; with HLA-A*33:01 it was at least 10000 nM; with HLA-A*68:01, at least 10000 nM.
Consider AFLESQSMNK, for which the Kd with HLA-A*03:01 is 3060 nM; with HLA-A*11:01, 1090 nM; with HLA-A*31:01, 9890 nM; in the assay with HLA-A*33:01 it was at least 10000 nM; with HLA-A*68:01, at least 10000 nM.
In the case of VSSIFISFY, the Kd in the assay with HLA-A*01:01 came out at 144 nM; with HLA-A*26:01 it was 1640 nM; with HLA-A*29:02, 1800 nM; in the assay with HLA-A*30:02, 55 nM.
Turning to TFLESSFDIK, the Kd in the assay with HLA-A*03:01 was at least 10000 nM; with HLA-A*11:01, 2510 nM; with HLA-A*31:01, at least 10000 nM; in the assay with HLA-A*33:01, at least 10000 nM; with HLA-A*68:01, at least 10000 nM.
With YLINKHWQR, the Kd with HLA-A*03:01 was found to be 1030 nM; with HLA-A*11:01 it was 676 nM; in the assay with HLA-A*31:01, 4.4 nM; in the assay with HLA-A*33:01, 7.7 nM; with HLA-A*68:01, 3.7 nM.
As for AVSEIQNNK, the dissociation constant (Kd) with HLA-A*03:01 was 25 nM; in the assay with HLA-A*11:01, 11 nM; with HLA-A*31:01, 1430 nM; in the assay with HLA-A*33:01, at least 10000 nM; with HLA-A*68:01 it was 14 nM.
In the same order, the values of PVVCSMEYK are 1940 nM, 80 nM, at least 10000 nM, at least 10000 nM and 414 nM.
The matching figures for FSYDLRLNK: 29 nM, 4.9 nM, 461 nM, 1260 nM and 15 nM.
In the same order, the values of KSMLKELIK are 189 nM, 151 nM, 450 nM, at least 10000 nM and at least 10000 nM.
Turning to QQNQESKIMK, the Kd with HLA-A*03:01 was 3470 nM; in the assay with HLA-A*11:01, 77 nM; with HLA-A*31:01, at least 10000 nM; in the assay with HLA-A*33:01, at least 10000 nM; with HLA-A*68:01 it was at least 10000 nM.
Turning to RYQDPQNYEL, the Kd with HLA-A*23:01 was 124 nM; with HLA-A*29:02, at least 10000 nM; in the assay with HLA-A*30:02, 84 nM.
On to LFDKDTFFK, for which the Kd in the assay with HLA-A*03:01 turned out to be 931 nM; in the assay with HLA-A*11:01, 167 nM; with HLA-A*31:01, 5710 nM; with HLA-A*33:01, 1190 nM; with HLA-A*68:01, 101 nM.
The matching figures for YLFNQHIKK: 14 nM, 7.8 nM, 4920 nM, 7970 nM and 14 nM.
On to SSPLFNNFYK, for which the Kd in the assay with HLA-A*03:01 stood at 100 nM; with HLA-A*11:01, 0.74 nM; in the assay with HLA-A*31:01, 1610 nM; with HLA-A*33:01, 1730 nM; in the assay with HLA-A*68:01, 6.3 nM.
In the same order, the values of GTMYILLKK are 2.2 nM, 1.2 nM, 29 nM, 8450 nM and 3.1 nM.
In the case of HLNIPIGFK, the Kd with HLA-A*03:01 is 2.3 nM; in the assay with HLA-A*11:01, 1.3 nM; with HLA-A*31:01 it was 183 nM; in the assay with HLA-A*68:01 it was 2.8 nM.
As to IFLRFIPDK, the equilibrium dissociation constant (Kd) with HLA-A*03:01 was 2440 nM; in the assay with HLA-A*11:01, 1280 nM; with HLA-A*31:01, 1640 nM; with HLA-A*33:01 it was 1310 nM; with HLA-A*68:01, at least 10000 nM.
The matching figures for EQRLPLLPK: 1090 nM, 765 nM, 423 nM, 987 nM and 1910 nM.
For SISGKYDIK, the Kd with HLA-A*03:01 is 2090 nM; in the assay with HLA-A*11:01, 50 nM; with HLA-A*31:01 it was at least 10000 nM; with HLA-A*33:01 it was at least 10000 nM; in the assay with HLA-A*68:01 it was 1740 nM.
With TTRYKYLNK, the Kd in the assay with HLA-A*03:01 stood at 117 nM; with HLA-A*11:01 it was 848 nM; in the assay with HLA-A*31:01, 416 nM; in the assay with HLA-A*33:01, 652 nM; with HLA-A*68:01 it was 2560 nM.
The matching figures for ALKISQLQK: 15 nM, 96 nM, 3200 nM, at least 10000 nM and at least 10000 nM.
With MQSSFFMNR, the Kd was 1.1 nM with HLA-A*11:01, 29 nM with HLA-A*31:01, 75 nM with HLA-A*33:01 and 3.8 nM with HLA-A*68:01.
With IYYFDGNSW, the Kd in the assay with HLA-A*23:01 was 6.1 nM; with HLA-A*29:02 it was 3100 nM; with HLA-A*30:02, 3020 nM.
Regarding YYNNFNNNY, the equilibrium dissociation constant (Kd) was 126 nM in the assay with HLA-A*23:01 and 58 nM with HLA-A*30:02.
Take VVCSMEYKK: the Kd with HLA-A*03:01 was 443 nM; in the assay with HLA-A*11:01 it was 54 nM; in the assay with HLA-A*31:01, 891 nM; with HLA-A*33:01, at least 10000 nM; with HLA-A*68:01 it was 167 nM.
In the same order, the values of LTNHLINTPK are 11 nM, 5.9 nM, 62 nM, 373 nM and 10 nM.
The matching figures for SQDLACIFDA: at least 10000 nM, at least 10000 nM, at least 10000 nM, at least 10000 nM and at least 10000 nM.
The matching figures for IIALLIIPPK: 30 nM, 5.3 nM, at least 10000 nM, 8430 nM and 82 nM.
On to ALERLLSLKK, for which the Kd with HLA-A*03:01 is 147 nM; with HLA-A*11:01, 822 nM; with HLA-A*31:01, at least 10000 nM; with HLA-A*33:01, at least 10000 nM; with HLA-A*68:01, at least 10000 nM.
On to SSFDIKSEVK, for which the Kd was 1900 nM with HLA-A*03:01; 19 nM with HLA-A*11:01; at least 10000 nM in the assay with HLA-A*31:01; at least 10000 nM in the assay with HLA-A*33:01; 31 nM with HLA-A*68:01.
With KINSNFLLK, the Kd with HLA-A*03:01 was 17 nM; in the assay with HLA-A*11:01, 6.4 nM; in the assay with HLA-A*31:01, 68 nM; with HLA-A*33:01, at least 10000 nM; with HLA-A*68:01, 2740 nM.
In the same order, the values of IFISFYLINK are 1990 nM, 1060 nM, 462 nM, 394 nM and 363 nM.
The matching figures for ILCIEGEQK: 1400 nM, 641 nM, 7530 nM, at least 10000 nM and 526 nM.
In the same order, the values of SQVSNSDSYK are 1660 nM, 83 nM, at least 10000 nM, at least 10000 nM and 1380 nM.
As to FISFYLINK, the Kd in the assay with HLA-A*03:01 amounted to 19 nM; with HLA-A*11:01, 9 nM; with HLA-A*31:01, 2190 nM; with HLA-A*33:01, 1460 nM; with HLA-A*68:01, 18 nM.
For RLPLLPKTWK, the Kd was 11 nM in the assay with HLA-A*03:01, 340 nM with HLA-A*31:01, at least 10000 nM in the assay with HLA-A*33:01 and 2890 nM with HLA-A*68:01.
With LQMMNVNLQK, the Kd with HLA-A*03:01 came out at 25 nM; with HLA-A*11:01, 7.2 nM; with HLA-A*31:01 it was 435 nM; in the assay with HLA-A*33:01, 1110 nM; with HLA-A*68:01, 320 nM.
The matching figures for ALERLLSLK: 233 nM, 369 nM, 3430 nM, at least 10000 nM and at least 10000 nM.
In the case of SSPLFNNFY, the Kd with HLA-A*01:01 stood at 117 nM; with HLA-A*26:01, 17 nM; in the assay with HLA-A*30:02 it was 41 nM.

The Kd is a measure of binding affinity in units of concentration.
